Assay results: patent US20090155255A1 (Biogen, published 2009)

Key:
[1] = target: T1, soluble CD23 antigen (soluble and monomeric form) (UniProt P06734 150-321, limits assumed); experiment: solution-phase competition Biacore, free CD23 read on an immobilised p5E8 chip; average of three titrations
T1 construct: also called free CD23
T1 sequence (looked up): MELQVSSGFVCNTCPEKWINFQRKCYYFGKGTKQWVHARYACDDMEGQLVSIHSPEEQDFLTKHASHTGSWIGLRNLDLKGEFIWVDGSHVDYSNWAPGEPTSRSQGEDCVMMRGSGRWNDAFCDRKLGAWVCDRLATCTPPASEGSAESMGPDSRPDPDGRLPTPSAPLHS
Protocol: In this experiment, the concentration of free CD23 (soluble and monomeric form) in solution is determined by the initial rate of binding to a CM5 Biacore chip containing immobilized p5E8 MAb. Into these CD23 solutions were titrated the p5E8 Fab prepared by papain digestion (one potential binding site), p5E8 MAb (two potential binding sites), and the C-terminal anti-CD23 tetravalent antibody (four potential binding sites). The p5E8 Fab, MAb, and tetravalent antibody are the ligands and CD23 is the analyte being tested.
P5E8 was immobilized to 20247 RUs on a CM5 sensor chip. CD23 and CD23 plus antibody were flowed over the sensor chip at a 10 μl/min for 3 minutes. Initial binding rates were obtained from a fit to the initial linear portion of the raw sensorgram data (FIG. 23A). The N (stoichiometry) values were determined by plotting the antibody concentration against the initial rate, Vᵢ, obtained at each concentration (FIG. 23B). […] Three experiments measured the initial rates of binding of free CD23 to the p5E8 sensor chip (concentrations for CD23 ranged from 0.15 to 15 nM) in the presence of constant concentrations of antibody of 1, 2.5 and 10 nM. […] The calculated stoichiometries correspond to binding of CD23 antigen to all four available antigen binding sites for the C-terminal tetravalent p5E8.

[2] = target: T1, soluble CD23 antigen (soluble and …); experiment: isothermal titration calorimetry, average over temperatures
Protocol: Isothermal titration calorimetry (ITC) accurately measures the thermodynamics of protein-protein interactions and can further provide the stoichiometry of the experimental complex. CD23, C-terminal tetravalent p5E8, p5E8 IgG and p5E8 Fab were extensively dialyzed for 12 hours against PBS. ITC experiments were performed on an iTC200 microcalorimeter (MicroCal LLC, Northampton, Mass.). After degassing, 25×1.5 μl aliquots of 100 μM CD23 were injected at 5 minute intervals into the 350-μl sample cell containing 5 μM solutions of antibody/Fab. Raw data were then integrated and fitted using a nonlinear least squares routine in ITC data analysis software ORIGIN (MicroCal LLC, Northampton, Mass.). The fitting generated values for the independent variables ΔH⁰ (binding enthalpy), N (the stoichiometry), and Kb (binding constant). For each antibody/Fab, ITC experiments were performed at 5° C., 15° C., 25° C., and 37° C. in order to determine the temperature dependence on the binding heats and to optimize the experiments to obtain better signal to noise.
The CD23 in the syringe and the antibody in the sample cell are both monomers in solution. On fitting the data, N values approximating 1, 2, and 4 would indicate binding of all available antigen binding sites for the p5E8 Fab, p5E8 IgG and the C-terminal tetravalent p5E8, respectively. […]

B1: PRIMATIZED p5E8 Fab (Fab, V domains shown)
VH: EVQLVESGGGLAKPGGSLRLSCAASGFRFTFNNYYMDWVRQAPGQGLEWVSRISSSGDPTWYADSVKGRFTISRENAKNTLFLQMNSLRAEDTAVYYCASLTTGSDSWGQGVLVTVSS
VL: DIQMTQSPSSLSASVGDRVTITCRASQDIRYYLNWYQQKPGKAPKLLIYVASSLQSGVPSRFSGSGSGTEFTLTVSSLQPEDFATYYCLQVYSTPRTFGQGTKVEIKR
notes: domain: CH1
N (stoichiometry, CD23 molecules bound per antibody) [1]: 1.05 | Avg. N (stoichiometry) [2]: 0.99
